Measured values as given in the supplement of paper PMC10567573.
± gives the standard deviation.

Experiment: protein stability index of a GFP-peptide fusion (GPS, HEK-293T) (PSI 1-6); higher = more stable
Conditions: c terminus: a fixed tail appended
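Note: 24-mer peptide tiles fused after GFP, lentivirally expressed, FACS-sorted into six equal bins by GFP/DsRed ratio, decoded by Illumina sequencing, PSI is the read-weighted mean bin number.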

Sequence	protein stability index (treatment: DMSO)	protein stability index (treatment: MLN4924 1 uM, 8 h)
LFQSPLFAKAGDTLSGTCLLIANK [CARM1]	2.56 ± 0.76	2.81 ± 0.47
RSHHLEMVIQLLAIMCVSCICWSP [PTGFR]	3.18 ± 0.26	3.14 ± 0.69
FCQMLAVVETINAAIGVTTSPVLP [HACD3]	2.69 ± 0.4	2.54 ± 0.23
LVKHWYQNCKKKLGKLPPQYALEL [OAS1]	2.43 ± 0.83	2.51 ± 0.63
VQEMRNKIREQNLQDIKTAGPQSQ [ADD1]	4.98 ± 0.34	5.1 ± 0.1
GFTSYLGFGDEDTGLELIAEESNP [MIA2]	4.61 ± 0.22	–
TQTWCTQSWNNQAWNSPFYNCGEE [NANOGP8]	3.07 ± 0.25	3.2 ± 0.12
AKEMSVPFYTSRIDEVLLHQDVDL [GFOD1]	3.74 ± 0.59	3.88 ± 0.35
